In paper PMC10570040 (Nucleic Acids Research, 2023):

Biological target: the molecule itself
Experiment: crystal structure; microbatch under oil at 22°C; space group P4(3)2(1)2, two monomers in the asymmetric unit

Protein	binding result
EnfR (TON_1525) T55I mutant (natural protein, Thermococcus onnurineus NA1, UniProt B6YTS4 1-146, looked up, TON_1525 (EnfR) of Thermococcus onnurineus NA1, residues 1-146, with T55I; The T55I change first arose in an adaptive laboratory evolution (strain 156T / MC11); here made by site-directed mutagenesis; source: E. coli Rosetta (DE3), purified (75°C heat step, Ni-NTA, Superdex 75); not shown: His6, C-terminal, kept) MGSKSFLTEQQIKILRLRARGLKQSEIAELLGTSRANISILERRALEKIEKARNIITIWEQINSKISVEVRKGEDIFTVPDKLFKKADELQIKVPYSTAEIIAFLVEHAPISDRIAKRDFTLFLDARDRLRISECLLEEFDEIGKQ	binds

Biological target: the molecule itself
Experiment: AUC; sedimentation velocity, 42,000 rpm, 20°C, absorbance at 280 nm, analysed with SEDFIT

Protein	stoichiometry N
TON_1525 ('eighth note' fold regulator, EnfR), wild-type (natural protein, Thermococcus onnurineus NA1, UniProt B6YTS4 1-146, looked up, Synthetic gene in pET24a(+) with an in-frame non-cleavable C-terminal His6-tag; also called WT; wild-type EnfR; source: E. coli Rosetta (DE3), purified (75°C heat step, Ni-NTA, Superdex 75); not shown: His6, C-terminal, kept) MGSKSFLTEQQIKILRLRARGLKQSEIAELLGTSRANISILERRALEKIEKARNTITIWEQINSKISVEVRKGEDIFTVPDKLFKKADELQIKVPYSTAEIIAFLVEHAPISDRIAKRDFTLFLDARDRLRISECLLEEFDEIGKQ	2
EnfR R35A mutant (natural protein, Thermococcus onnurineus NA1, UniProt B6YTS4 1-146, looked up, TON_1525 (EnfR) of Thermococcus onnurineus NA1, residues 1-146, with R35A; source: E. coli, purified by the same procedure as the wild-type; not shown: His6, C-terminal, kept) MGSKSFLTEQQIKILRLRARGLKQSEIAELLGTSAANISILERRALEKIEKARNTITIWEQINSKISVEVRKGEDIFTVPDKLFKKADELQIKVPYSTAEIIAFLVEHAPISDRIAKRDFTLFLDARDRLRISECLLEEFDEIGKQ	2
EnfR R44A mutant (natural protein, Thermococcus onnurineus NA1, UniProt B6YTS4 1-146, looked up, TON_1525 (EnfR) of Thermococcus onnurineus NA1, residues 1-146, with R44A; source: E. coli, purified by the same procedure as the wild-type; not shown: His6, C-terminal, kept) MGSKSFLTEQQIKILRLRARGLKQSEIAELLGTSRANISILERAALEKIEKARNTITIWEQINSKISVEVRKGEDIFTVPDKLFKKADELQIKVPYSTAEIIAFLVEHAPISDRIAKRDFTLFLDARDRLRISECLLEEFDEIGKQ	2
EnfR R43A mutant (natural protein, Thermococcus onnurineus NA1, UniProt B6YTS4 1-146, looked up, TON_1525 (EnfR) of Thermococcus onnurineus NA1, residues 1-146, with R43A; source: E. coli, purified by the same procedure as the wild-type; not shown: His6, C-terminal, kept) MGSKSFLTEQQIKILRLRARGLKQSEIAELLGTSRANISILEARALEKIEKARNTITIWEQINSKISVEVRKGEDIFTVPDKLFKKADELQIKVPYSTAEIIAFLVEHAPISDRIAKRDFTLFLDARDRLRISECLLEEFDEIGKQ	2
EnfR mutant with N-terminal six residues deleted (ΔN^1–6) (domain or fragment, Thermococcus onnurineus NA1, UniProt B6YTS4 7-146, looked up, TON_1525 (EnfR) of Thermococcus onnurineus NA1, residues 1-146 without the N-terminal six residues (N-6 region, residues 1-6); The limits 7-146 follow from the printed deletion of residues 1-6 of the 1-146 construct; also called mutant with the N-6 region deleted; source: E. coli, purified by the same procedure as the wild-type; not shown: His6, C-terminal, kept) LTEQQIKILRLRARGLKQSEIAELLGTSRANISILERRALEKIEKARNTITIWEQINSKISVEVRKGEDIFTVPDKLFKKADELQIKVPYSTAEIIAFLVEHAPISDRIAKRDFTLFLDARDRLRISECLLEEFDEIGKQ	2
